According to publication PMC5692602:

Molecular target: ^15N-labeled intersectin 1-SH3A domain (UniProt Q15811)
Test: NMR titration

Chain of UniProt Q15811 (Q15811 740-806): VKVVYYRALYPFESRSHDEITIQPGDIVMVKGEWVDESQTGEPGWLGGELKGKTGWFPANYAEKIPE

Substance	Kd
SH3A–B interdomain linker-derived peptide of intersectin 1, dephosphorylated	275 µM
SH3A–B interdomain linker-derived peptide of intersectin 1, T832 and T839 phosphorylated	793 µM
